# Paper PMC4954698
# Legend:
# [1] = molecular target: Glutamate decarboxylase (GAD) from Escherichia coli K12, produced without pyridoxine hydrochloride supplementation (GAD-C) (E. coli str. K12 substr. MG1655) (UniProt P69910); assay: SEC; Superdex 200 10/300GL, 20 mM citric acid-Na2HPO4 buffer pH 6.5 with 0.15 mM PLP, 0.4 mL/min, calibrated with molecular weight standards; native molecular weight about 324 kDa
# [2] = molecular target: Glutamate decarboxylase (GAD) from Escherichia coli K12, produced in media supplemented with pyridoxine hydrochloride (GAD-V) (E. coli str. K12 substr. MG1655) (UniProt P69910); assay: as above
stoichiometry N [1],stoichiometry N [2],Substance
6,–,"Glutamate decarboxylase (GAD) from Escherichia coli K12, produced without pyridoxine hydrochloride supplementation (GAD-C) (from UniProt P69910 1-466) (enzyme)"
–,6,"Glutamate decarboxylase (GAD) from Escherichia coli K12, produced in media supplemented with pyridoxine hydrochloride (GAD-V) (from UniProt P69910 1-466) (enzyme)"
